The target of this assay is HIV-1 integrase tagged at the C-terminus with the HA epitope (IN-HA) (HIV-1 (Lai molecular clone)). The assay can be described thus: cross-linking; gel filtration fractions 30-32 (IN complex III) of extracts of infected LEDGF/p75 knock-down TL34 cells, 2 h p.i.; 0.25 to 2 mM EGS, 30 min at room temperature, 20 mM HEPES-KOH pH 7.2, 0.3 M KCl; SDS-PAGE and anti-HA-HRP blot. On the technique in general: SEC sorts molecules by how far they enter the pores of the column.

This passage reports stoichiometry N results from PMC3571920.

For “HIV-1 integrase tagged at the C-terminus with the HA epitope (IN-HA) (enzyme)”, the stoichiometry N is 4.

What is called stoichiometry N is the number of molecules, sites or subunits per partner or assembly.
